Reference: publication PMC2531280

Substrate: NCCc1c[nH]cn1
Test: purified protein
Assay type: biochemical, Pimelobacter simplex

B1: histamine dehydrogenase (HADH) (Pimelobacter simplex) (protein)
chain: MTEQPAVAAPYDVLFEPVQIGPFTTKNRFYQVPHCNGMGYRDPSAQASMRKIKAEGGWSAVCTEQVEIHATSDIAPFIELRIWDDQDLPALKRIADAIHEGGGLAGIELAHNGMNAPNQLSRETPLGPGHLPVAPDTIAPIQARAMTKQDIDDLRRWHRNAVRRSIEAGYDIVYVYGAHGYSGVHHFLSKRYNQRTDEYGGSLENRMRLLRELLEDTLDECAGRAAVACRITVEEEIDGGITREDIEGVLRELGELPDLWDFAMGSWEGDSVTSRFAPEGRQEEFVAGLKKLTTKPVVGVGRFTSPDAMVRQIKAGILDLIGAARPSIADPFLPNKIRDGRLNLIRECIGCNICVSGDLTMSPIRCTQNPSMGEEWRRGWHPERIRAKESDARVLVVGAGPSGLEAARALGVRGYDVVLAEAGRDLGGRVTQESALPGLSAWGRVKEYREAVLAELPNVEIYRESPMTGDDIVEFGFEHVITATGATWRTDGVARFHTTALPIAEGMQVLGPDDLFAGRLPDGKKVVVYDDDHYYLGGVVAELLAQKGYEVSIVTPGAQVSSWTNNTFEVNRIQRRLIENGVARVTDHAVVAVGAGGVTVRDTYASIERELECDTVVMVTARLPREELYLDLVARRDAGEIASVRGIGDAWAPGTIAAAVWSGRRAAEEFDAVLPSNDEVPFRREVTQLA
Km: 24 µM
kcat: 9.8 s⁻¹
